Assay results as given in patent publication US20210130452A1 (Merck KGaA, published 2021).

Experiments:
[1] = biological target: T1, human IL-17A (human, UniProt Q16552 24-155); test: ELISA, coated IL-17A
T1 construct: secreted form (GenBank U32659) expressed in Hek293 with C-terminal 6-His; also called hIL-17A; IL-17A-6HIS
Experimental: (§1) Binding of a selected panel of anti-IL-17 Nanobodies to IL-17 of other species was assessed using a binding ELISA. […] HRP (horseradish peroxidase) conjugated anti-myc (Serotec, MCA 2200P) was used for detection using esTMB as substrate.

[2] = biological target: T2, marmoset IL-17A (marmoset, IL-17A is a disulfide-linked homodimer. One chain is given.); test: ELISA, coated IL-17A
T2 chain: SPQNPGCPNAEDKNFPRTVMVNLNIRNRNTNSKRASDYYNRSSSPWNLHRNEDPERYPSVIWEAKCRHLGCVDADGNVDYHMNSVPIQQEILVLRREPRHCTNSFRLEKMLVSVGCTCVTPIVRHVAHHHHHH
Experimental: as §1

[3] = biological target: T3, mouse IL-17A (mouse, UniProt Q62386 26-158); test: ELISA, coated IL-17A
T3 sequence (looked up): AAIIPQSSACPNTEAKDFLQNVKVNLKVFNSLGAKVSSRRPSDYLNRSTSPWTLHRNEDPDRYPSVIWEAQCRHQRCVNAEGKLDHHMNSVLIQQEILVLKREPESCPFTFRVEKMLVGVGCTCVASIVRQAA
Experimental: as §1

[4] = biological target: T4, rat IL-17A (rat, UniProt Q61453 18-150, limits assumed); test: ELISA, coated IL-17A
T4 sequence (looked up): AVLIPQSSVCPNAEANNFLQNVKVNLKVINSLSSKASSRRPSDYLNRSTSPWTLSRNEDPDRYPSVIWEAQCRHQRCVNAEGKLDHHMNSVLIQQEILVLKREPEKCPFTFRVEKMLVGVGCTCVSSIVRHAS
Experimental: as §1

[5] = biological target: guinea pig IL-17A (guinea pig); test: ELISA, coated IL-17A
Experimental: as §1

[6] = biological target: T5, human IL-17F (human, UniProt Q96PD4 31-163); test: ELISA, coated IL-17F;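 further: binding ELISA on coated antigen from various species, with bound Nanobodies revealed by an HRP-linked anti-myc antibody and esTMB substrate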
T5 construct: GenBank AF384857, expressed in Hek293 as 6-His C-terminal tagged protein; also called hIL-17F; IL-17F-6HIS
T5 sequence: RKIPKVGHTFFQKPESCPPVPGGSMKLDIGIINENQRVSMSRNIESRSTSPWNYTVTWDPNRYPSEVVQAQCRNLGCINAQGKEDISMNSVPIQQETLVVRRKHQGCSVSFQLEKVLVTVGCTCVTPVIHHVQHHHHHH
Experimental: as §1

[7] = biological target: T6, marmoset IL-17F (marmoset, UniProt A6N6I9 31-163); test: ELISA, coated IL-17F;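 further: binding ELISA on coated antigen from various species, with bound Nanobodies revealed by an HRP-linked anti-myc antibody and esTMB substrate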
T6 sequence (looked up): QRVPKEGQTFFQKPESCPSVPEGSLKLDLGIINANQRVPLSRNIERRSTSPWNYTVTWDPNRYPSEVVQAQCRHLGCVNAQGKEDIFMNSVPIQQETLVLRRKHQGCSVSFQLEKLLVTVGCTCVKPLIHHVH
Experimental: as §1

[8] = biological target: T7, mouse IL-17F (mouse, UniProt Q7TNI7 29-161); test: ELISA, coated IL-17F;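 further: binding ELISA on coated antigen from various species, with bound Nanobodies revealed by an HRP-linked anti-myc antibody and esTMB substrate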
T7 sequence (looked up): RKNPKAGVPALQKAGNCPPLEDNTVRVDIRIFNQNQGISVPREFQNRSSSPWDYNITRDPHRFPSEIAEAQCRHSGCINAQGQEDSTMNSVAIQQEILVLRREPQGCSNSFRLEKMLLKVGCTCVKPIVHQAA
Experimental: as §1

[9] = biological target: T8, rat IL-17F (rat, UniProt Q5BJ95 29-161); test: ELISA, coated IL-17F;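 further: binding ELISA on coated antigen from various species, with bound Nanobodies revealed by an HRP-linked anti-myc antibody and esTMB substrate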
T8 sequence (looked up): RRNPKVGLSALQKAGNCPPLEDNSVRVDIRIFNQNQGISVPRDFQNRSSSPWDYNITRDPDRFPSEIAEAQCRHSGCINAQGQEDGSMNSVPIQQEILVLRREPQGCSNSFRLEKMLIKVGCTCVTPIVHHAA
Experimental: as §1

[10] = biological target: T1, human IL-17A; test: SPR, IL-17A-Nanobody complex over captured IL-17RA
Text: The receptor (IL-17RA or IL-17RC) was captured via its human Fc-tail by an anti-human IgG-Fc antibody coated on the chip.

[11] = biological target: T9, human IL-17A (human, UniProt Q16552 24-155, biotinylated with Sulfo-NHS-LC-Biotin in the AlphaScreen assays only); test: SPR Biacore, hIL-17A on chip; periplasmic extract (*); NB = no binding
T9 construct: also called hIL-17A; recombinant human IL-17A
Experimental: (§2) Off-rates of the periplasmic extracts containing anti-IL-17 Nanobodies were measured by Surface Plasmon Resonance (SPR) using a Biacore T100 instrument. […] Periplasmic extracts containing IL-17 neutralizing Nanobodies were injected for 2 minutes at a flow rate of 45 μl/min to allow binding to chip-bound antigen. Next, binding buffer without periplasmic extracts was sent over the chip at the same flow rate to allow spontaneous dissociation of bound Nanobody. From the sensorgrams obtained for the different periplasmic extracts koff-values (k₄) were calculated.

[12] = biological target: T10, human IL-17F (human, UniProt Q96PD4 31-163, biotinylated with Sulfo-NHS-LC-Biotin in the AlphaScreen assays only); test: cell-based or functional assay
T10 sequence: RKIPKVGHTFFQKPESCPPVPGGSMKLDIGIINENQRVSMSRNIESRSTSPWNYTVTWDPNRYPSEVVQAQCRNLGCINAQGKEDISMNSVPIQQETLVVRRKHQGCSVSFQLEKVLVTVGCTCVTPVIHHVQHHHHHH

[13] = biological target: T11, human IL-17A/F heterodimer (human, UniProt Q16552 24-155; Q96PD4 31-163, limits assumed, biotinylated with Sulfo-NHS-LC-Biotin in the AlphaScreen assays only); test: cell-based or functional assay
Target sequence in this assay (Q16552 24-155 limits assumed, chain 1 of 2, one chain of several): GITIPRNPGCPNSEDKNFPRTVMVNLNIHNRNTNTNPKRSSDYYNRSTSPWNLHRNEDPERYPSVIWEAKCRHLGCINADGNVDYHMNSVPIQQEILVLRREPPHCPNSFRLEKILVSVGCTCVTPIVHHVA

[14] = biological target: T10, human IL-17F; test: AlphaScreen competition, hIL-17F - IL-17RA-Fc
Experimental: (§3) To this mixture, the IL-17RA or IL-17RC Fc-fusions, Acceptor beads and the streptavidin Donor beads were added and further incubated for 1 hour at RT.

[15] = biological target: T10, human IL-17F; test: AlphaScreen competition, hIL-17F - IL-17RC-Fc
Experimental: as §3

[16] = biological target: T11, human IL-17A/F heterodimer; test: AlphaScreen competition, hIL-17A/F - IL-17RA-Fc
Target sequence in this assay (Q16552 24-155 limits assumed, one chain of several): as the sequence (Q16552 24-155 limits assumed, chain 1 of 2, one chain of several) above
Experimental: as §3

[17] = biological target: T11, human IL-17A/F heterodimer; test: AlphaScreen competition, hIL-17A/F - IL-17RC-Fc
Target sequence in this assay (Q16552 24-155 limits assumed, chain 1 of 2, one chain of several): as above
Experimental: as §3

[18] = biological target: T11, human IL-17A/F heterodimer; test: SPR Biacore, hIL-17A/F on chip; purified protein
Target sequence in this assay (Q16552 24-155 limits assumed, chain 1 of 2, one chain of several): as above

[19] = biological target: T10, human IL-17F; test: SPR Biacore, hIL-17F on chip; purified protein
Experimental: as §2

[20] = biological target: T1, human IL-17A; test: SPR
[21] = biological target: T12, human IL-17A/F heterodimer (human, UniProt Q16552 24-155; Q96PD4 31-163, limits assumed); test: SPR
T12 construct: produced in E. coli, bought from R&D Systems (Cat 5194-IL/CF); also called hIL-17A/F
T12 sequence (Q16552 24-155 limits assumed, chain 1 of 2, one chain of several): as above

[22] = biological target: T1, human IL-17A; test: AlphaScreen IL-17A-IL-17RA, average
[23] = biological target: T13, human IL-17F (human, UniProt Q96PD4 31-163); test: SPR (Biacore) off-rate
T13 construct: made in Hek293 cells (GenBank AF384857); also called hIL-17F; hIL17F
T13 sequence: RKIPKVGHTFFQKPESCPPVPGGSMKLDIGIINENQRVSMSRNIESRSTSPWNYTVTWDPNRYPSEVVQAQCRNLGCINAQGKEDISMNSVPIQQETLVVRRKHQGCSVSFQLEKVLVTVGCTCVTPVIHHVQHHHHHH

[24] = biological target: T14, human IL-17A/F heterodimer (human, UniProt Q16552 24-155; Q96PD4 31-163, limits assumed); test: SPR (Biacore) off-rate
T14 construct: bought, made in E. coli (R&D Systems 5194-IL/CF); also called hIL-17A/F; hIL17A/F
T14 sequence (Q16552 24-155 limits assumed, chain 1 of 2, one chain of several): as the sequence (Q16552 24-155 limits assumed, chain 1 of 2, one chain of several) above

T1 sequence (Q16552 other isoform, or with tags, fused parts or gaps): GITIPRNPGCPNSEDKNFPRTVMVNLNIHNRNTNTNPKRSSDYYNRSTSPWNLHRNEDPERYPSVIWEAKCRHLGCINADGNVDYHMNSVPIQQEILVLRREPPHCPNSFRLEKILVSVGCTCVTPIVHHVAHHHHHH
T9 sequence (Q16552 other isoform, or with tags, fused parts or gaps): as above

B1: 11A06 (VHH)
VHH: EVQLVESGGGLVQPGESLRLSCKASGFSLDYYALGWFRQAPGKEREGISCITSSDASAYYTDSVKGRFTISRDNSKNTVYLQMNSLKTEDTAIYYCAAALLTCSSYYDAYTYWGQGTQVTVSS
notes: Class 2
With B1 the OD [1] was 1.69 OD, the OD [2] was 1.71 OD and the OD [3] was 0.004 OD. It also gave an OD [4] of 0.008 OD, an OD [5] of 0.007 OD and an OD [6] of 0.673 OD. The OD [7] was 0.0225 OD, the OD [8] was 0.0455 OD and the OD [9] was 0.0045 OD. For the same binder, the “% Biacore binding (IL-17A-NB)-IL-17RA” value [10] was -0.35%.

B2: 08B07 (VHH)
VHH: EVQLVESGGGLVQPGGSLRLSCAASGRDFRVKNVGWIRQAPGKQRELVATITVGGSTNYADSAKGRFTISRDNAKNTVYLQMSSLKPEDTAVYYCNAVATVTDYTGTYSDGFWGQGTQVTVSS
notes: Class 3 Nanobody (anti-IL-17F); not shown: c-myc, His6 tag
B2: no binding [11].

B3: 24B08 (VHH)
VHH: EVQLVESGGGLVQAGGSLRLSCAVSGGTFSTYKMGWFRQAPGKEREIVARISTNGPTAYAEFVKGRFTVSRENTKNTVYLQMNSLNIEDTAVYYCAAGYDSLFAGYDYWGQGTQVTVSS
notes: as for B2
B3: no binding [11].

B4: 12A09 (VHH)
VHH: EVQLVESGGGLVQPGGSLRLSCAASGFTFSSYRMAWVRQAPGKGLEWVSSTSTGGEMTNYADSVKGRFTISRDNAKNTLHLQMNSLKPEDTALYYCAAGTSAGHWSTGGQGTQVTVSS
notes: as for B2
B4 was tested, and the “IL-17F-induced IL-6 production in HT-1080 cells, Emax” value [12] was 91%, the “IL-17F-induced IL-6 production in HT-1080 cells, IC50” value [12] was 105 nM and the “IL-17A/F-induced IL-6 production in HT-1080 cells, Emax” value [13] was 41.5%. For the same binder, the “IL-17A/F-induced IL-6 production in HT-1080 cells, IC50” value [13] was 100 nM, the IC50 [14] was 1.84 nM and the IC50 [15] was 0.612 nM. The IC50 [16] was over 250 nM, the IC50 [17] was 33.2 nM and the koff [18] was 0.017 s⁻¹. B4: no binding [11].

B5: 07B11 (VHH)
VHH: EVQLVESGGGLVQAGGSLRLSCVASGRAFSSYVMGWFRQAPGMEREFVALIRWSDGITGYVDSVKGRFTISRDNAKNTVYLQMNSLKPEDTAVYYCAAAVRPGDYDYWGQGTQVTVSS
notes: as for B2
B5: no binding [11].

B6: 08A08 (VHH)
VHH: EVQLVESGGGLVQAGGSLRLSCAASGRTFRPYRMGWFRRAPGKAREFVTLISWSSGRTSYADSVKGRFTISRDSAKNAVYLQMDNLKPEDTAVYFCAVDLSGDAVYDSWGQGTQVTVSS
notes: as for B2
With B6 the “IL-17F-induced IL-6 production in HT-1080 cells, Emax” value [12] was 62%, the “IL-17F-induced IL-6 production in HT-1080 cells, IC50” value [12] was 206 nM and the IC50 [14] was 3.84 nM. The IC50 [15] was 1.3 nM, the koff [19] was 0.048 s⁻¹ and the IC50 [17] was 19.7 nM. The koff [18] was 0.0079 s⁻¹ and the binding result [11] was “no binding”.

B7: 07B09 (VHH)
VHH: EVQLVESGGGLVQAGGSLRLSCGASGGTFSSYATGWFRQAPGKEREFVAVLRWSDGHTAYADSVKGRFTISRDGAKNTMYLQMSSLKPEDTAIYYCTTATRPGEWDYWGQGTQVTVSS
notes: as for B2
B7: no binding [11].

B8: 24G10 (VHH)
VHH: EVQLVESGGGLVQAGGSLRLSCGAAGGTFSSYATGWFRQAPGKEREFVAVFRWSDSHTAYADSVKGRFTISRDGAKNTLYLQMSSLKPEDTAIYYCTTATRPGEWDYWGQGTQVTVSS
notes: as for B2
B8: no binding [11].

B9: IL17MS3010 (VHH, name in Kabat numbering)
VHH: EVQLVESGGGLVQPGGSQRLSCTASGTIVNIHVMGWYRQAPGKQRELVALIFSGGSADYADSVKGRFTISRDNSKNTVYLQMNSLRAEDTAVYYCAAEIGYYSGGTYYSSEAHWGQGTLVTVSS
notes: also called IL17MS3010 basic
B9 was tested, and the koff [20] was 0.00013 s⁻¹, the koff [21] was 0.000217 s⁻¹ and the IC50 [22] was 0.184 nM.

B10: IL17MS3012 (VHH, name in Kabat numbering)
VHH: EVQLVESGGGLVQPGGSQRLSCAASGTIVNIHVMGWYRQAPGKQRELVALIFSGGSADYADSVKGRFTISRDNSKNTVYLQMNSLRAEDTAVYYCAAEIGYYSGGTYYSSEAHWGQGTLVTVSS
notes: basic + T23A; Kabat positions
For B10, the koff [20] was 0.000137 s⁻¹, the koff [21] was 0.000228 s⁻¹ and the IC50 [22] was 0.101 nM.

B11: IL17MS3011 (VHH, name in Kabat numbering)
VHH: EVQLVESGGGLVQPGGSLRLSCTASGTIVNIHVMGWYRQAPGKQRELVALIFSGGSADYADSVKGRFTISRDNSKNTVYLQMNSLRAEDTAVYYCAAEIGYYSGGTYYSSEAHWGQGTLVTVSS
notes: basic + Q18L; Kabat positions
Binder B11 has a koff [20] of 0.000132 s⁻¹, a koff [21] of 0.000223 s⁻¹ and an IC50 [22] of 0.139 nM.

B12: IL17MS3056 (VHH)
VHH: EVQLVESGGGLVQPGGSLRLSCAASGRTFSSYVVGWFRQAPGKEREFVGAISGSGDSIYYAVSEKDRFTISRDNSKNTLYLQMSSLRAEDTAVYYCTADQEFGYLRFGRSEYWGQGTLVTVSS
notes: variant of IL17MS16A04; Kabat numbering
In the case of B12, the koff [23] is reported as 0.000514 s⁻¹ and the koff [24] is reported as 0.00288 s⁻¹.

B13: IL17MS3054 (VHH)
VHH: EVQLVESGGGLVQPGGSLRLSCAASGRTFSSYVVGWFRQAPGKEREFIGAISGSGDSIYYAVSEKDRFTISRDNSKNTLYLQMSSLRPEDTAVYYCTADQEFGYLRFGRSEYWGQGTLVTVSS
notes: as for B12
Work on B13 yielded a koff [23] of 0.000459 s⁻¹ and a koff [24] of 0.00308 s⁻¹.

B14: IL17MS3055 (VHH)
VHH: EVQLVESGGGLVQPGGSLRLSCAASGRTFSSYVVGWFRQAPGKEREFIGAISGSGDSIYYAVSEKGRFTISRDNGKNTLYLQMNSLRAEDTAVYYCTADQEFGYLRFGRSEYWGQGTLVTVSS
In the case of B14, the koff [23] is reported as 0.000493 s⁻¹ and the koff [24] is reported as 0.00332 s⁻¹.
